The target of the assay is T1, His-Gβ1/Gγ2(C68S) (human, UniProt P62873 1-340; P59768 1-71, C68S).
T1 construct: human Gβ1 (GNB1); human Gγ2 (GNG2) with C68S; also called Gβγ; Gβγ(C68S); source: Sf9, baculovirus (pFastBac Dual), co-expressed, purified (TALON, gel filtration); not shown: His6, N-terminal, kept
The assay can be described thus: AlphaScreen or HTRF; TR-FRET Gα/Gβγ interaction assay: 4 nM biotinylated avi-Gα with streptavidin XL665, 2 nM His-Gβ1/γ2(C68S) with anti-6His-Tb cryptate, cyclic peptide 0-10,000 nM; 1X PBS 7.4, 2 mM DTT, 0.1% BSA, 2 mM MgCl2, 0.05% Tween, 0.5 mM GDP, 2 h at room temperature. As to conditions: both partners purified. (In general: In Alpha technology, singlet oxygen from a donor bead excites a nearby acceptor bead.)

T1 sequence (P62873 whole entry, chain 1 of 2): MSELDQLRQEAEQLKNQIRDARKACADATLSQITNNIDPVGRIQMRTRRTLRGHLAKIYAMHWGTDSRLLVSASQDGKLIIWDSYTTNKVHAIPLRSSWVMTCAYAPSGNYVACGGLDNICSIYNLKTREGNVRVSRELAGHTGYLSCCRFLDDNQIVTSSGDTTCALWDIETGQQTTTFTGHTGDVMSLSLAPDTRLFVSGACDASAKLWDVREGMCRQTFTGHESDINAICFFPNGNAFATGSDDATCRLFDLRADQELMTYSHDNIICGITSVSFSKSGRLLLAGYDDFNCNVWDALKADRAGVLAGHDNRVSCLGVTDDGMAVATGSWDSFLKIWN
T1 sequence (P59768 whole entry C68S, chain 2 of 2): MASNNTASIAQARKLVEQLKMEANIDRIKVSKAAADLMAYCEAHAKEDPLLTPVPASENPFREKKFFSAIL

B1: Biotinylated Avi-Gαs (WT), residues 7-380 of the short isoform of human Gαs (natural protein)
chain: SKTEDQRNEEKAQREANKKIEKQLQKDKQVYRATHRLLLLGAGESGKSTIVKQMRILHVNGFNGDSEKATKVQDIKNNLKEAIETIVAAMSNLVPPVELANPENQFRVDYILSVMNVPDFDFPPEFYEHAKALWEDEGVRACYERSNEYQLIDCAQYFLDKIDVIKQADYVPSDQDLLRCRVLTSGIFETKFQVDKVNFHMFDVGGQRDERRKWIQCFNDVTAIIFVVASSSYNMVIREDNQTNRLQEALNLFKSIWNNRWLRTISVILFLNKQDLLAEKVLAGKSKIEDYFPEFARYTTPEDATPEPGEDPRVTRAKYFIRDEFLRISTASGDGRHYCYPHFTCAVDTENIRRVFNDCRDIIQRMHLRQYELL
modifications: biotin on the Avi tag (BirA)
notes: human Gαs (GNAS), short isoform, residues 7-380; Loaded with GNP (GppNHp) or GDP; the nucleotide state is told by the assay; also called Gαs/GNP; Gαs/GDP; source: E. coli BL21(DE3), purified (TALON, Drice cleavage, BirA biotinylation, Source-15Q, gel filtration); not shown: Avi tag, N-terminal, kept; His6, N-terminal, cleaved
On to B1, for which the binding result is “binds”.

The values are drawn from publication PMC9747239, “State-selective modulation of heterotrimeric Gαs signaling with macrocyclic peptides” (Cell, 2022).
